Reference: patent US20090142273A1, “Activatable cest MRI agent” (CASE WESTERN RESERVE UNIVERSITY, priority 2006, published 2009)

Legend:
caspase-3 [1] = molecular target: T1, caspase-3 (Homo sapiens, UniProt P42574); assay: […] spectra of DEVD-(Tm-DOTA) amide before and after adding caspase-3; format: biochemical
T1 sequence (P42574 29-175 limits assumed): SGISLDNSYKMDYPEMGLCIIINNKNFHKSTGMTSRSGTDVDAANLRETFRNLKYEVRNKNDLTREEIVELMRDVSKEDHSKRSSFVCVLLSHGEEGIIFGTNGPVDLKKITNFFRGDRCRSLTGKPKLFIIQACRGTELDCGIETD
T1 sequence (P42574 176-277 limits assumed): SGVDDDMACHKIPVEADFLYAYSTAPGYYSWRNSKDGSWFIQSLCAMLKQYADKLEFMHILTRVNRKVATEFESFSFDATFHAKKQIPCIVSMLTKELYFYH
From the text: In one embodiment, the caspase-3 substrate DEVD (Asp-Glu-Val-Asp) was elongated using the amino group on one side arm of lanthanide ligand anchored on the polymer support. FIG. 9 illustrates the conversion of the DEVD-(Ln-DOTA) 90 to amino-(Ln-DOTA) 92 through cleavage by caspase-3. […] Accordingly, the enzymatic activity of caspase-3 can be detected by the change in […] effect caused by this biotransformation.
FIG. 16 illustrates […] spectra 998 and MR parametric map 999 of DEVD-(Tm-DOTA) amide 155 before and after adding caspase-3. […] spectra were acquired at 37° C. and pH 7.4 with a continuous wave saturation pulse applied at 31 μT for 4 seconds. The deconvoluted […] spectrum of the product after reaction, showing a […] effect at +8 ppm, is also shown. MR images were acquired at 37° C. and pH 7.4 with a Bruker Biopsin 9.4 T MR scanner. A MSME T1 method was used with TR/TE=1623/10.9 ms and a train of Gaussian-shaped saturation pulses applied at 25 μT for 1.106 s, and with saturation offsets at −51 ppm and +51 ppm. The parametric map was obtained by subtracting the MR image with a saturation offset at −51 ppm from the MR image with saturation offset at +51 ppm. The magnitude of the scale of the original MR images was used as the scale for this parametric map, to properly represent the difference in MRI contrast obtained with different saturation offsets. The […] spectrum of 155 (25 mM, pH 7.4) was recorded by applying selective saturation in 1 ppm increments from +100 ppm to −100 ppm. A […] effect was detected at −51 ppm, which was assigned to the amide most proximal to the lanthanide ion in 155, based on identical results obtained from a similar compound, Tm3^+-DOTAMGly. After 48 nM of caspase-3 was added and the mixture was incubated at 37° C. and pH 7.4 for 1 hour, the […] effect at −51 ppm was decreased and an asymmetrical shape in the […] spectrum was observed near water. This asymmetry was analyzed by deconvolution to show a […] effect at +8 ppm.

caspase-3 [2] = molecular target: T1, caspase-3; assay: MR parametric map of DEVD-(Tm-DOTA) amide before and after reaction with caspase-3; format: biochemical; settings: saturation at −51 ppm vs +51 ppm, 9.4 T, 37° C., pH 7.4
Protocol: FIG. 16 illustrates […] spectra 998 and MR parametric map 999 of DEVD-(Tm-DOTA) amide 155 before and after adding caspase-3. […] spectra were acquired at 37° C. and pH 7.4 with a continuous wave saturation pulse applied at 31 μT for 4 seconds. The deconvoluted […] spectrum of the product after reaction, showing a […] effect at +8 ppm, is also shown. MR images were acquired at 37° C. and pH 7.4 with a Bruker Biopsin 9.4 T MR scanner. A MSME T1 method was used with TR/TE=1623/10.9 ms and a train of Gaussian-shaped saturation pulses applied at 25 μT for 1.106 s, and with saturation offsets at −51 ppm and +51 ppm. The parametric map was obtained by subtracting the MR image with a saturation offset at −51 ppm from the MR image with saturation offset at +51 ppm. The magnitude of the scale of the original MR images was used as the scale for this parametric map, to properly represent the difference in MRI contrast obtained with different saturation offsets. The […] spectrum of 155 (25 mM, pH 7.4) was recorded by applying selective saturation in 1 ppm increments from +100 ppm to −100 ppm. A […] effect was detected at −51 ppm, which was assigned to the amide most proximal to the lanthanide ion in 155, based on identical results obtained from a similar compound, Tm3^+-DOTAMGly. […] This asymmetry was analyzed by deconvolution to show a […] effect at +8 ppm. […]

change of PARACEST effect at −51 ppm after caspase-3 (caspase-3 [1]; 48 nM caspase-3, 37° C., pH 7.4, 1 hour): decreased | PARACEST effect after cleavage by caspase-3 (free amine) (caspase-3 [1]; 48 nM caspase-3, 37° C., pH 7.4, 1 hour, by deconvolution): +8 ppm | PARACEST effect, MR saturation frequency of amide (caspase-3 [1]; before caspase-3, 25 mM, pH 7.4, 37° C., 31 μT for 4 seconds): −51 ppm | change in water MR signal after reaction with caspase-3 (caspase-3 [2]): no significant change | decrease in water MR signal due to the PARACEST effect before the enzymatic reaction (caspase-3 [2]): ~14.5%
Substance: DEVD-(Tm-DOTA) amide [compound 155]
